The RNAGym collection of RNA variant scans (doi:10.1073/pnas.2313332121)
Variants at the floor of the assay were thinned out.

B1: TPR 5TU (parent)
chain: GGAUCUUCUCGAUCUAACAAAAAAGACAAAUCUGCCACAAAGCUUGAGAGCAUCUUCGGAUGCAGAGGCGGCAGCCUUCGGUGGCGCGAUAGCGCCAACGUUCUCAACUAUGACACGCAAAACGCGUGCUCCGUUGAAUGGAGUUUAUCAUG

Variants of: B1
Experiment: polymerase ribozyme fitness, log enrichment relative to wild type (log ratio); higher = more active; in vitro selection for triplet polymerase activity
Procedure, shortened: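 Mutant libraries were PCR-built and transcribed for each subunit of a heterodimeric triplet polymerase ribozyme and selected for one round in triplicate at −7 °C, frozen, before gel excision of extended constructs and streptavidin-bead capture. Input and output libraries were Illumina-sequenced, keeping genotypes with ≥10 input reads and ≥1 read per output. Fitness is a logarithmic ratio of genotype to wild-type enrichment, in base 2, using inverse-variance-weighted replicate averages.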

Row | Variant | polymerase ribozyme fitness (log ratio)
1 | U4G A23C A30U A52C U56A | ≤ -4.2
2 | A3U U7G A39C U56A G83C C132U U144C U145C C149A | ≤ -4.2
3 | U4A G11U G50A C76U G84U G94C G126U | ≤ -4.2
4 | C5U C69A | -2.55
5 | C5G A21U C27U G46A G94C C105G G126A | ≤ -4.2
6 | U4A A17U A66G C69A G84U A138U | ≤ -4.2
7 | U4A A21U G50A G68A G74A C75G C93U A107C C131G | ≤ -4.2
8 | C5G A12G C63U G84C C96U | ≤ -4.2
9 | C5U G81U C87A A107G U144G | ≤ -4.2
10 | C5U U139G | 0.221
11 | C5A C75U U90C A91G A150G | ≤ -4.2
12 | A3U U13G | 0.0481
13 | U6A A19G C99A | -2.14
14 | C5G U44A G59A A121C A122G | ≤ -4.2
15 | U6A A20G U45A | -3.51
16 | U4G C5U U55G A106C | -2.25
17 | U4C A147C | -0.0283
18 | U6A A23C C76G G94A G141C G152U | ≤ -4.2
19 | C5U A16U C54U C87U G117A A119U | -1.75
20 | C5A C36G A49C U61A G84A | ≤ -4.2
21 | U4A C36G C131A G136A | ≤ -4.2
22 | C5A C54U | 0.00554
23 | U4A G25U C54U G92U G124A | -2.53
24 | U4G C54G C96G A137G | -4.19

Row | Variant | polymerase ribozyme fitness (log ratio)
25 | C5A C57U G86A A120G G141C | -2.54
26 | C5G A23G A52U C87G C99A | ≤ -4.2
27 | A3U U56A G88C U145G | -3.98
28 | C5G C32U U53G A73U C85U | ≤ -4.2
29 | C5A A52C A73U U82C C85U G136U | ≤ -4.2
30 | U4C U53A A121C U144C | -1.34
31 | C5A C85A | -1.31
32 | C5U A17C C54A C85A C93U C105G A113G G141A | ≤ -4.2
33 | U4C A19C C38G C93U C114G | ≤ -4.2
34 | C5A A22C C38A G71A A89C | ≤ -4.2
35 | U4C C10G A17U A22G C36U U78A G92A C118U | ≤ -4.2
36 | C5A A91U | -4.1
37 | C5U A28U C51G C75G C95U G141U | -4.02
38 | U4A A17G A47G G68U C69G G88U G124A U127A G128C G140U U145G | ≤ -4.2
39 | C5G G25U C27G A37G G46A U61A C96U | -4.17
40 | U4G A37C G50U G59U G86U | -3.71
41 | C5G A16C G59U C96A | -2.66
42 | C5A G59U C69U G94U A98G U102G U135C | ≤ -4.2
43 | C5G U45C | -1.55
44 | U4G U6G A20C A24U A30C C95U A119C U148A | ≤ -4.2
45 | U4C C32G C103G | ≤ -4.2
46 | A3U G59A A120U | -0.556
47 | C5U C18U C85A | -0.0024
48 | C5G G59A | -0.858

Row | Variant | polymerase ribozyme fitness (log ratio)
49 | A3U U4C G88U G92U A97G | ≤ -4.2
50 | C5G G50A G59C C76A G83A C103G C114A | ≤ -4.2
51 | C5U A20U G50C G81A G117A C132U | ≤ -4.2
52 | U6A A22U | 0.00924
53 | U4G G67A C85U C116A A122U A150U G152C | ≤ -4.2
54 | A3U U9A A23C C27G G81A C85G C132A | ≤ -4.2
55 | C5G C10G U13G C14G C54A C57U G88U G94A U139C U144C | ≤ -4.2
56 | U4A A21G G68A A73G G86U A142G | ≤ -4.2
57 | C5A C93U A98G C103A | -3.31
58 | C5G U53A C54G U77G U82C G92C C129G U144C | ≤ -4.2
59 | A3U U15A A21U U31A C85G | -0.347
60 | U4A U139C | -4.08
61 | U4A G94C | -0.637
62 | C5G A12G A19U C75A C103G C114U G117A A121C A142U | ≤ -4.2
63 | C5G C85U G88U C105G A119C | ≤ -4.2
64 | C5G A24C G48A A52C C85U G140U | ≤ -4.2
65 | U4A A22C C96G A119U C149U | -3.08
66 | U4A A41G G84A U139G U146C | -0.701
67 | U6A A17G G58C A60C C69U C118U U146C | -4.14
68 | C5G G11U A17U A39U C57G A73G C79U A138G G141C U144G | ≤ -4.2
69 | U4A A60U A97C U109A | -3
70 | A3U G94A G117C A137G | -3
71 | U4G C99U | -0.868
72 | C5G U139A | -3.99

Row | Variant | polymerase ribozyme fitness (log ratio)
73 | U4G U6A U13A C14A U33A A39G | ≤ -4.2
74 | C5A U13G C27A C36A C51U C87A | ≤ -4.2
75 | C5G A52C C76G G81A A91U | ≤ -4.2
76 | U4C A47C G84A G88A G92U A142G | ≤ -4.2
77 | U4G C10G A24U C35U U55G G83A C116A | ≤ -4.2
78 | C5A A12U U13A U15A G83U C95U A107U C108U | ≤ -4.2
79 | C5U A26U | -1.04
80 | C5A C14U C32A U33A A47U U82G G92U G126C U135G | ≤ -4.2
81 | U6A A12U G50A C149A | ≤ -4.2
82 | C5G A17G C32U A49C C54U U55G G88C C96A | ≤ -4.2
83 | C5A U33G C38U A49C G67C G92C | ≤ -4.2
84 | U4G C8G A19G A49U U53C A73G G83A A98G A113C A115U | ≤ -4.2
85 | C5G U53G G92A C103A U111G A120U | ≤ -4.2
86 | A3U G59A C75U C93A A138G | -3.95
87 | C5U A19U G83U G92U C123A G126U U146G | -4.19
88 | C5A G50U G84A U135A U139A G141C | ≤ -4.2
89 | U4A C8U G46C C93A G100A C118U | ≤ -4.2
90 | C5A A17C G83A G143U | -2.68
91 | U4C C5A U15C C36G U53A | -4.12
92 | U4G U61G C76G C93G C103U | ≤ -4.2
93 | U4G C36A U55A U61A C76U C87U | ≤ -4.2
94 | C5G C96G G141U | -0.469
95 | C5A C14G | -0.996
96 | U4G C5U A24U A26U G65U G88U G94U A98G G124U G143U | ≤ -4.2

Row | Variant | polymerase ribozyme fitness (log ratio)
97 | C5G G94C A122C | -1.03
98 | C5A A20C A41G C93A A147C | -1.66
99 | C5U G143C | -1.95
100 | C5G A17U G74A A91G G141U | ≤ -4.2
101 | C5U A40G C85G | -3.18
102 | U6A A21U U55A | -0.47
103 | U4A U13C C36U C96G | -2.21
104 | U4G C14G A21U A30U C93G C131U G141A | ≤ -4.2
105 | U4G G50A C96G U102G C123A | ≤ -4.2
106 | U4G C18U C51U G80C A91G C95G C105U U109A A119U | ≤ -4.2
107 | C5U A22U C69A G88U | ≤ -4.2
108 | U4G U13C A19G A52G U56G A64U G80C A91G C95G C105U U109A A119U | ≤ -4.2
109 | C5A A30C U82G U102C C131U | ≤ -4.2
110 | U4C C76U | -0.762
111 | U4C U15C C87A A121C | ≤ -4.2
112 | C5U C63G A73G G81C C105U A115C A138C | ≤ -4.2
113 | C5U U6A C57U G67C G71A U82G C87G U104A U139G A142G | ≤ -4.2
114 | U6A A22C A39U U44A G70A C99A | ≤ -4.2
115 | U4C C32A A37G G83U A122U U151A | ≤ -4.2
116 | U4A A16U A29U U55G C72G U127A | ≤ -4.2
117 | C5A A39U C85U U90G C118U C125U | ≤ -4.2
118 | U4G C54G G80C G92U A115C | ≤ -4.2
119 | U4C C69G G141U A147U | -1.91
120 | C5G G152C | -2.87

Row | Variant | polymerase ribozyme fitness (log ratio)
121 | C5A A23C C85U G88A C105U A120G | ≤ -4.2
122 | C5U C85U U127C U145A | -2.5
123 | C5A A21U U77A U82G C96G U104G C105A C118U U139C | ≤ -4.2
124 | U4A A41C U61A C63G A64C C72A C96G | ≤ -4.2
125 | C5U U45A | -2.1
126 | U4C A49U C93A | -3.07
127 | U6A A12G A16U C43U G83A | ≤ -4.2
128 | U4C U53A C76G U90C U145C | ≤ -4.2
129 | U4G G141U | 0.552
130 | C5A G68C G80C C85G A138G | ≤ -4.2
131 | C5A G74A G81U U139G | -3.53
132 | C5A A12G C35A G42A C96U | ≤ -4.2
133 | U4C G58A C103A G124A | -3.54
134 | U4A A24U C57G C85U | -0.18
135 | U6A A12G A30C A66U C95A A106G A120G G126C A150U | ≤ -4.2
136 | C5A A20U A47U G74C G117A G126U | ≤ -4.2
137 | C5G A29U U55G U78A G92C C118U U145A | ≤ -4.2
138 | C5U G62A U90G A138G A142U | ≤ -4.2
139 | C5G U7C U13A A16G C51U G92C A98G C114A | -4.13
140 | C5A A29C G50U C51U G88A U90C | ≤ -4.2
141 | C5U A37U C51U | -1.26
142 | U4C A23C C43U G46A G84A C105G C118U A119C | ≤ -4.2
143 | C5A C93A | -1.25
144 | U4G C51G A73U C87U C96A G117A | ≤ -4.2

Row | Variant | polymerase ribozyme fitness (log ratio)
145 | C5U C14U A26U C118G A121U | -3.94
146 | U4G A30G A91G G94C G128U C132A | ≤ -4.2
147 | U4C A115G | -1.57
148 | C5A U6G A28U A52C G84C A110G | ≤ -4.2
149 | A3U U6A A19U G42U A113G A121U G124C U148A | ≤ -4.2
150 | U4A C57G G83A | -1.23
151 | A3U U6G C35U C76U C87G C103A A137C G152A | ≤ -4.2
152 | U4A C93U | -1.34
153 | C5G A17G U61A G67A C93A C95U G140U | ≤ -4.2
154 | A3U U90C A97G A150G | -3.73
155 | U4A G84A U101G | -0.65
156 | C5A A21U A30G A39U G68A C149A | ≤ -4.2
157 | U4C G50C G62A G84A G92C | ≤ -4.2
158 | C5G G46C G50C C129U U134C C149U | ≤ -4.2
159 | C5U G62C G88C | ≤ -4.2
160 | U4A U33C G59A U90G C95A U111G C125A | ≤ -4.2
161 | U4G G34A C96G A97U C123A C132A | ≤ -4.2
162 | C5G G80A | 0.101
163 | A3U C87A | -3.25
164 | C5A C54U C75G G80C U82A C87U C99G | ≤ -4.2
165 | U4C C51A U82A C96A | ≤ -4.2
166 | C5G C87U A98G | -1.31
167 | U4A U6G G67C U82A U130G G143C | ≤ -4.2
